From US20160303232A1 (Merrimack Pharmaceuticals, Inc., priority 2015, published 2016)
Entries after “also recorded” stand apart in the source; their conditions may differ. Structures can show the parent of a compound that is named as a salt.

Experiments:
[1] = tested on: NSCLC cell lines (A549, EKVX, H358, H322M, Calu-3, H661, H441, H1355, H430); assay: 3D spheroid proliferation assay with or without HRG and chemotherapy; assay type: cell-based, human; conditions: 5 nM HRG; docetaxel 111 nM, pemetrexed 1111 nM; 96hrs; three cell lines most responsive to HRG
Protocol: HRG-driven ErbB3 signaling mediates survival signaling through the PI3K/AKT pathway and has been implicated as a general mechanism that imparts insensitivity to cytotoxic chemotherapy. […] Proliferation was measured, in the presence or absence of HRG, in a panel of nine cell lines using 3D spheroid cultures.

[2] = tested on: human ovarian epithelial carcinoma OVCAR8 cells; assay: OVCAR8 xenograft model of ovarian cancer, combination therapy study; assay type: in vivo, mouse; conditions: for tumor progression over time: FIGS. 7A-7C, monotherapy versus co-administration with fixed dose of seribantumab; for tumor growth, single agent: i.p., seribantumab 300 μg Q3D, irinotecan HCl 6.25 mg/kg Q7D, gemcitabine 25 mg/kg Q7D, paclitaxel 10 mg/kg Q7D, three weeks
Description: In these xenograft studies, the mice were obtained from Charles River Laboratories. The mice were housed in Tecniplast® Individually Ventilated polycarbonate (Makrolon®) Cages (IVC) set in climate-controlled rooms and had free access to food and acidified water. A cell suspension of 8×10^6 cells/mouse, mixed 1:1 in reduced growth factor Matrigel™ (BD Biosciences, Cat #354230) and PBS was implanted by subcutaneous injection into the left flank of female, 4-5 week old nu/nu nude, Crl:NU-Foxn1^nu mice. Tumors were allowed to reach 250 mm^3 in size before randomization.
Mice were randomized as above into 8 groups of 10 mice each. […] Treatment continued for three weeks. Tumors were measured twice weekly and tumor volume calculated.

[3] = tested on: HRG positive (HRG+) tumors; assay: Previous randomized phase II clinical trials of seribantumab plus standard of care, by HRG expression; assay type: in vivo, human; conditions: seribantumab added to standard-of-care therapy; patients with HRG expression at or above threshold / HRG+ tumors
[4] = Population pharmacokinetic analysis of seribantumab, combined phase I and phase II studies, two-compartment model; assay type: in vivo, human
Description: Covariate selection evaluated potential relationships between baseline covariates (sex, race, age, weight, intended-dose, and study/indication) and volume of distribution and clearance. The results indicated significant relationships between weight, sex, and clearance, with the final parameter estimates provided in Table 1. […] In the presence of the relationship between weight and clearance, no significant relationship between volume (V) and weight (WT) were observed.

[5] = Clinical studies of seribantumab co-administered with full doses of chemotherapy (MTD, safety); assay type: in vivo, human; conditions: co-administered with standard doses of pemetrexed, paclitaxel or cabazitaxel; 40 mg/kg loading dose then weekly 20 mg/kg
[6] = fixed effect, final population PK estimate, 499 patients

| Molecule | effect of HRG on inhibition of cell viability by chemotherapy (HRG-induced resistance) [1] | tumor progression over time [2] | tumor growth, single agent [2] | further results |
| --- | --- | --- | --- | --- |
| CC(=O)O[C@@]12CO[C@@H]1C[C@H](O)[C@@]1(C)C(=O)[C@H](O)C3=C(C)[C@@H](OC(=O)[C@H](O)[C@@H](NC(=O)OC(C)(C)C)c4ccccc4)C[C@@](O)([C@@H](OC(=O)c4ccccc4)[C@H]21)C3(C)C [docetaxel, 1,7β,10β-trihydroxy-9-oxo-5β,20-epoxytax-11-ene-2α,4,13α-triyl 4-acetate 2-benzoate 13-{(2R,3S)-3-[(tert-butoxycarbonyl)amino]-2-hydroxy-3-phenylpropanoate}] | induces resistance; also recorded: decreased | – | – | – |
| Nc1ccn([C@@H]2O[C@H](CO)[C@@H](O)C2(F)F)c(=O)n1 [gemcitabine] | – | began to progress over time | inhibited tumor growth | – |
| CCc1c2c(nc3ccc(OC(=O)N4CCC(N5CCCCC5)CC4)cc13)-c1cc3c(c(=O)n1C2)COC(=O)[C@]3(O)CC [irinotecan HCl] | – | began to progress over time | inhibited tumor growth | – |
| CC(=O)O[C@H]1C(=O)[C@@]2(C)[C@H]([C@H](OC(=O)c3ccccc3)[C@]3(O)C[C@H](OC(=O)[C@H](O)[C@@H](NC(=O)c4ccccc4)c4ccccc4)C(C)=C1C3(C)C)[C@]1(OC(C)=O)CO[C@@H]1C[C@@H]2O [paclitaxel] | – | began to progress over time | inhibited tumor growth | – |
| Nc1nc(=O)c2c(CCc3ccc(C(=O)N[C@@H](CCC(=O)O)C(=O)O)cc3)c[nH]c2[nH]1 [pemetrexed, (2S)-2-{[4-[2-(2-amino-4-oxo-1,7-dihydropyrrolo[2,3-d]pyrimidin-5-yl)ethyl]benzoyl]amino}pentanedioic acid] | induces resistance; also recorded: decreased | – | – | – |
| seribantumab: human monoclonal anti-ErbB3 IgG2; heavy chain SEQ ID NO:7, light chain SEQ ID NO:8 (antibody, listed as Homo sapiens) heavy: EVQLLESGGGLVQPGGSLRLSCAASGFTFSHYVMAWVRQAPGKGLEWVSSISSSGGWTLYADSVKGRFTISRDNSKNTLYLQMNSLRAEDTAVYYCTRGLKMATIFDYWGQGTLVTVSSASTKGPSVFPLAPCSRSTSESTAALGCLVKDYFPEPVTVSWNSGALTSGVHTFPAVLQSSGLYSLSSVVTVPSSNFGTQTYTCNVDHKPSNTKVDKTVERKCCVECPPCPAPPVAGPSVFLFPPKPKDTLMISRTPEVTCVVVDVSHEDPEVQFNWYVDGVEVHNAKTKPREEQFNSTFRVVSVLTVVHQDWLNGKEYKCKVSNKGLPAPIEKTISKTKGQPREPQVYTLPPSREEMTKNQVSLTCLVKGFYPSDIAVEWESNGQPENNYKTTPPMLDSDGSFFLYSKLTVDKSRWQQGNVFSCSVMHEALHNHYTQKSLSLSPGK light: QSALTQPASVSGSPGQSITISCTGTSSDVGSYNVVSWYQQHPGKAPKLIIYEVSQRPSGVSNRFSGSKSGNTASLTISGLQTEDEADYYCCSYAGSSIFVIFGGGTKVTVLGQPKAAPSVTLFPPSSEELQANKATLVCLVSDFYPGAVTVAWKADGSPVKVGVETTKPSKQSNNKYAASSYLSLTPEQWKSHRSYSCRVTHEGSTVEKTVAPAECS | – | – | significantly suppressed tumor growth | progression-free survival (PFS) [3]: improved progression-free survival; also recorded: increased PFS; CL [4, 6]: 3.15 L/wk; Q [4, 6]: 2.92 L/wk; V [4, 6]: 3.23 L; V2 [4, 6]: 2.68 L; Cov CL and V ([4]; random effect): 27%; Omega CL ([4]; random effect): 36%; Omega V ([4]; random effect): 37%; maximum tolerated dose (MTD) [5]: no MTD was identified; also recorded: no maximum tolerated dose (MTD) reached |
